Experimental data reported in article PMC8593154.

Experiments:
[1] = target: γB2ΔICD-EC5-VenusΔN3C9-P3 (mouse) (UniProt Q91XX7); assay: FRET or BRET; acceptor photobleaching at cell adhesion sites of co-cultured HEK293T cells individually expressing donor (mTQ2) and acceptor (Venus) constructs; trans interaction across cells
[2] = target: γB2ΔICD-EC5-Venus (mouse) (UniProt Q91XX7); assay: as above

FRET efficiency [1]	FRET efficiency [2]	Substance
27.4%	–	γB2ΔICD-EC1-G4S-mTQ2ΔC6 (from UniProt Q91XX7 1-738) (receptor)
–	14.1%	γB2ΔICD-EC1-mTQ2 (from UniProt Q91XX7 1-738) (receptor)
